Kd data for one substance are collected here from paper doi:10.1101/2021.05.27.445985.

The target of this test is Cy5-labeled human neutrophil peptide 1 (HNP1) (human). Kind of test: fluorescence polarisation.

By Kd is commonly meant the constant that tells how readily two partners part at equilibrium. A high value points to a looser complex. Regarding “Recombinant SARS-CoV-2 Spike glycoprotein (from UniProt P0DTC2) (natural protein)”, the Kd turned out to be 146 nM.
